Measured values published in the RNAGym collection of RNA variant scans (doi:10.1073/pnas.2313332121).

B1: TPR t1 (parent)
chain: GACCAAUCUGCCCUCAGAGCUCGAGAACAUCUUCGGAUGCAGAGGAGGCAGGCUUCGGUGGCGCGAUAGCGCCAACGUCCUCAACCUCCAAUGCAUCCCACCACAUGAUGAUGCCUGAAGAGCCUUGGUUUUUUG

Variants of: B1
Assay: polymerase ribozyme fitness, log enrichment relative to wild type (log ratio); higher = more active; in vitro selection for triplet polymerase activity
Method in brief: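 Mutant libraries for each subunit of a heterodimeric triplet polymerase ribozyme were made by PCR and then transcribed. Each library underwent one round of in vitro selection in triplicate: annealing with a biotinylated primer, the partner subunit and triplets, frozen incubation at −7 °C, gel excision of extended constructs, streptavidin-bead capture and RT-PCR. Input and output libraries were Illumina-sequenced, and only genotypes with ≥10 input reads and ≥1 read per output were kept. Fitness is the logarithm, base 2, of genotype enrichment over wild-type enrichment, computed from inverse-variance-weighted replicate averages.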

Variant | polymerase ribozyme fitness (log ratio)
G47U U112C | -0.538
G47U U112A | 0.352
G47U G60A C86A C89U | -0.955
G48A G117A | -2.44
G48A A111C | -0.446
G48A A111G | -0.578
G47U U78G U96A | -1.79
G48C C49A A50G G52C C53U C86G C94U C114A | -3.63
G47U A66G A118G U130G | -4.13
G47U G110U U134A | -2.33
G47C U112A | -0.857
G47C C70A | -5.04
G47U G69C A105U | -5.38
G47C A121G | 0.606
G47A U131C | -1.16
G47C U126A | -4.53
G47U C88A | -6.05
G48A C80G A95C U109G | -7.79
G47C G69U A90C C104U | -1.9
G47A U92C G127A | -5.01
G47C C49A A111U | -5.94
G47C G120C G122A G128U | -3.66
G47U U54C C56A C80U C124G | -1.14
G48A C49U C53A A111U | -3.28

Variant | polymerase ribozyme fitness (log ratio)
G47U A95U C101U C104A A111G C123G | -5.49
G47C G60C U109A U112G | -7.01
G47U C72G A90G | -1.68
G48A G69U C82G G113U U132A | -2.33
G47C C70A U131G | -4.27
G48A A84G | -0.314
G48A A84C | -0.643
G47C G61U U130A | -2.36
G48A C86G A118C | -3.12
G48A C62A G69U | -5.25
G48C A103U G120A | -6.04
G48A G63U G113A | -2.17
G48C C62U A75G | -1.21
G48A C97A U112C | -2.48
G47U C73U | -1.42
G47U A66C C115U U130A G135A | -5.53
G48C C53G C64G G65A U109G | -6.8
G47C C80U | -3.51
G47U C101A | -2.91
G48A C73U C82U G93U | -1.54
G47U C64A | -6.47
G47C G63U | -3.66
G47U G71A C104U | -2.44
G47A U81G C82U C86G | -1.44

Variant | polymerase ribozyme fitness (log ratio)
G48A A50C U78A A119G G120C | 0.118
G47C C56U C73U A105U | -4.05
G48C A95G U106A | -0.768
G48A C53G U55C G69A | -2.78
G48A C79U U92G U116C G120C | -5.27
G48C C56G C101U U125G | -1.87
G48C A90G | 0.432
G48A U92A | -3.51
G48A C85G C115U | -2.75
G48A A95G U132A | -1.21
G47C U81G G93A C101U | -5.71
G47U G69U U131A | -1.3
G48A G69U C98G U125A U131C | -3.58
G48A U59A C79U U125G U130G | -1.48
G47U U92A | -5.48
G47U G117A | -3.33
G48A U87C C101A A105U | -3.9
G48C C49A G128A | -3.09
G47U G71C U126G | -3.65
G47U U106C | -1.89
G48A U130A | -1.78
G47C U133G | -1.54
G48C C53U U54C U81A | -2.99
G47U U59C C97U G110C A121G U126C | -6.2

Variant | polymerase ribozyme fitness (log ratio)
G48A G69C C123U | -0.587
G47U G110C | -5.49
G48A G61C A66U | -2.1
G48C C49U G71C C102A | -4.66
G47U C53U C104U | -1.72
G48A G63U A84G G128U | -3.63
G47U C53A A103C U112A G122A | -6.51
G48A G63U A121U | 0.283
G48A C101U G117C U129C | -6.15
G47C C62U | -1.21
G47U G52A C72U | -2.43
G48A U54A | -0.741
G47U U55A C70A C94G | -4.15
G48A C89G A95G | -3.06
G48A G69C C79U U92G U116C G120C | -7.13
G47A U96A | -1.93
G47A U125A | -1.31
G47C G113A | -2.47
G47C A90G | -1.06
G48C C53G | -0.405
G47U C73A C85U | -1.61
G48A C64U A95U G110C C115A | -5.72
G48A G93C C114A | -2.27
G48A C72U C101G U133A | -2.79

Variant | polymerase ribozyme fitness (log ratio)
G47U G60U U116C U131A U132C | -1.54
G47C C104U | -1.08
G47A G63A C85G | -3.45
G48A G60U A90C C114A | -2.49
G48A G113U G120U | -3.65
G48A U81C C102A A121C | -0.944
G47A U96A U126C | -3.31
G47C C123G U133A | -0.852
G48A A68G | -2.51
G47U G51A G61U C79G G93A G113C C114G | -6.6
G48A A66U | -2.3
G48A C97A | -5.22
G47U C49G C88A A95C C123A | -3.47
G47C C94U | -1.71
G47C G69A | -4.38
G47C A90U G128C | -5.03
G47U C76U | -1.17
G47C U55G C72G U106A U129A G135C | -2.99
G47U A95U A108G C123A | -3.06
G47U G58C G63U | -1.75
G47U G60A | -1.93
G47A G77U | -0.132
G48A C62A U81A | -3.27
G47U U59C C101U U125G U126C | -3.12

Variant | polymerase ribozyme fitness (log ratio)
G47C U78A A105C G120C U130C | -3.11
G48A C72G G77A U78A C79A G120A U130A | -2.79
G47C C72U C85A C99G G110A | -7.27
G47U A111G G120A | -2.18
G47C U106A | -1.41
G48C A90U U112G | -2.32
G48C A90U U112A | -0.162
G47C C85G | -2.21
G48A G77U G135U | -1.78
G48A G61U | -0.0763
G47A U87A U96A | -2.62
G47U G71C | -2.44
G47U G71U | -2.23
G47A U96A C98G | -6.21
G47C C56G | -1.79
G48A G93A C114G | -3.84
G47U G61A U131A | -0.875
G47U G61A | -0.861
G47C C70U G120C | -0.515
G47U C85U C97A C124G | -4.97
G48C C56A C97A C104U U112G | -6.59
G47C C114U | -3.1
G48A C56A G113U | -4.64
G48A G52U C80G | -5.98

Variant | polymerase ribozyme fitness (log ratio)
G48A U81A C102U | -4.06
G47C C73U | -1.61
G48A C79A C97U | -2.68
G47U | -1.72
G47C | -1.82
G48A G57A G69U | -0.155
G47C U78A | -1.42
G47U C123U | -0.404
G47U G61C A90U G117C | -6.8
G47C A111C A118C | -2.36
G47C U81G | -3.84
G47U C86G | -0.954
G47U U87G G120A | -1.99
G48A C88U | -0.667
G48A A103G G110U | -6.26
G47C C98U C124G | -0.238
G48A G57U A95C U112A C114A | -3.34
G47U U55G U116G | -3.9
G47A U55G C85U | -1.22
G47C C82U C114A | -2.65
G47U C72A | -0.885
G47U C72G | -2.79
G48A A95U | -1.28
